Reference: patent publication US20260242440A1, “NOVEL MEANS TO MODULATE NMDA RECEPTOR-MEDIATED TOXICITY” (FUNDAMENTAL PHARMA GMBH, priority 2018, published 2026)
Entries after “also recorded” stand apart in the source; their conditions may differ.

B1: SEQ ID NO:50: fragment of mouse TRPM4, amino acid residues 347-467 (protein, listed as Mus musculus)
chain: LQAQVERIMTRKELLTVYSSEDGSEEFETIVLRALVKACGSSEASAYLDELRLAVAWNRVDIAQSELFRGDIQWRSFHLEASLMDALLNDRPEFVRLLISHGLSLGHFLTPVRLAQLYSAVS
B2: SEQ ID NO:48: fragment of mouse TRPM4, amino acid residues 690-1036 (protein, listed as Mus musculus)
chain: IWALLLAFFCPPLIYTNLIVFRKSEEEPTQKDLDFDMDSSINGAGPPGTVEPSAKVALERRQRRRPGRALCCGKFSKRWSDFWGAPVTAFLGNVVSYLLFLLLFAHVLLVDFQPTKPSVSELLLYFWAFTLLCEELRQGLGGGWGSLASGGRGPDRAPLRHRLHLYLSDTWNQCDLLALTCFLLGVGCRLTPGLFDLGRTVLCLDFMIFTLRLLHIFTVNKQLGPKIVIVSKMMKDVFFFLFFLCVWLVAYGVATEGILRPQDRSLPSILRRVFYRPYLQIFGQIPQEEMDVALMIPGNCSMERGSWAHPEGPVAGSCVSQYANWLVVLLLIVFLLVANILLLNLLI
B3: SEQ ID NO:52: fragment of mouse TRPM4, amino acid residues 536-648 (protein, listed as Mus musculus)
chain: SYLGQDHRENDSLLMDWANKQPSTDASFEQAPWSDLLIWALLLNRAQMAIYFWEKGSNSVASALGACLLLRVMARLESEAEEAARRKDLAATFESMSVDLFGECYHNSEERAARLLLRRCPLWG
B4: SEQ ID NO:51: fragment of mouse TRPM4, amino acid residues 468-548 (protein, listed as Mus musculus)
chain: SLGHFLTPVRLAQLYSAVSPNSLIRNLLDQASHASSSKSPPVNGTVELRPPNVGQVLRTLLGETCAPRYPARNTRDSYLGQDHRENDSLLMDWANKQPST
B5: SEQ ID NO:47: fragment of mouse TRPM4, amino acid residues 347-689 (protein, listed as Mus musculus)
chain: LQAQVERIMTRKELLTVYSSEDGSEEFETIVLRALVKACGSSEASAYLDELRLAVAWNRVDIAQSELFRGDIQWRSFHLEASLMDALLNDRPEFVRLLISHGLSLGHFLTPVRLAQLYSAVSPNSLIRNLLDQASHASSSKSPPVNGTVELRPPNVGQVLRTLLGETCAPRYPARNTRDSYLGQDHRENDSLLMDWANKQPSTDASFEQAPWSDLLIWALLLNRAQMAIYFWEKGSNSVASALGACLLLRVMARLESEAEEAARRKDLAATFESMSVDLFGECYHNSEERAARLLLRRCPLWGEATCLQLAMQADARAFFAQDGVQSLLTQKWWGEMDSTTP
B6: SEQ ID NO:53: corresponds to SEQ ID NO:47 but comprises additionally a membrane-anchor (GPI) (protein)
chain: LQAQVERIMTRKELLTVYSSEDGSEEFETIVLRALVKACGSSEASAYLDELRLAVAWNRVDIAQSELFRGDIQWRSFHLEASLMDALLNDRPEFVRLLISHGLSLGHFLTPVRLAQLYSAVSPNSLIRNLLDQASHASSSKSPPVNGTVELRPPNVGQVLRTLLGETCAPRYPARNTRDSYLGQDHRENDSLLMDWANKQPSTDASFEQAPWSDLLIWALLLNRAQMAIYFWEKGSNSVASALGACLLLRVMARLESEAEEAARRKDLAATFESMSVDLFGECYHNSEERAARLLLRRCPLWGEATCLQLAMQADARAFFAQDGVQSLLTQKWWGEMDSTTPLENGGTSLSEKTVLLLVTPFLAAAWSLHP
modifications: GPI membrane anchor; Fusion protein of SEQ ID NO: and SEQ ID NO:57
B7: SEQ ID NO:49: fragment of mouse TRPM4, amino acid residues 1037-1213 (protein, listed as Mus musculus)
chain: AMFSYTFSKVHGNSDLYWKAQRYSLIREFHSRPALAPPLIIISHVRLLIKWLRRCRRCRRANLPASPVFEHFRVCLSKEAERKLLTWESVHKENFLLAQARDKRDSDSERLKRTSQKVDTALKQLGQIREYDRRLRGLEREVQHCSRVLTWMAEALSHSALLPPGAPPPPSPTGSKD

Each molecule was assayed on primary mouse hippocampal neurons (assay: NMDA induced cell death (excitotoxicity) in cultured primary neurons). Settings: polypeptide expressed via rAAV infection on DIV3; NMDA 20 μM for 10 min; cell death assessed 24 h later.
Assay type: cell-based
Procedure: Primary mouse hippocampal and cortical neurons were prepared and maintained as known. Briefly, hippocampi or cerebral cortex from P0 C57Bl/6NCrl mice were dissociated and plated at a density of 1.2*105/cm^2 in Growth Medium (GM), consisting of Neurobasal A medium (Gibco™, 10888022), 2% serum free B27™ Supplement (Gibco™, 17504044), 1% rat serum (Biowest, S2150), 0.5 mM L-Glutamine (Sigma, G7513) and 0.5% P-S. Cytosine β-D-arabinofuranoside (AraC; Sigma, C1768; 2.8 μM) was added on DIV3 to prevent the proliferation of glial cells. From DIV8, half of the medium was replaced by GM without Rat serum every 48 h until being used for experiments. 24 h before experiments, GM was replaced with transfection medium (10 mM HEPES, pH 7.4, 114 mM NaCl, 26.1 mM NaHCO3, 5.3 mM KCl, 1 mM MgCl2, 2 mM CaCl2, 30 mM glucose, 1 mM glycine, 0.5 mM C3H3NaO3, and 0.001% phenol red and 10% of phosphate-free Eagle's minimum essential medium, supplemented with 7.5 µg/ml insulin, 7.5 µg/ml transferrin and 7.5 ng/ml sodium selenite (ITS Liquid Media Supplement, Sigma-Aldrich Cat #I3146)). Primary hippocampal neurons were used in live cell imaging, cell death experiments, while cortical neurons were used for mRNA and protein extraction analysis.
All viral particles were produced and purified as known in the art. All TRPM4 derived peptides (comprising SEQ ID NO:5, or any of SEQ ID NO:46 to SEQ ID NO:56) were cloned into rAAV backbone by PCR. shRNA against mouse TRPM4 were designed by BLOCK-iT™ RNAi Designer from Thermofisher to target: […] (SEQ ID NO:44, shTRPM4-1) and […] (SEQ ID NO:45, shTRPM4-2). Scramble shRNA (shSCR) has been tested and proven to have no known targets in mice. GPI anchor ([…], e.g. used in SEQ ID NO:53) sequences were synthesized by Eurofins Genomics (Ebersberg, Germany). All primers were synthesized and all plasmids were confirmed by sequencing by Eurofins Genomics.
In order to investigate the role of TRPM4 in NMDA receptor mediated excitotoxicity, the inventors used RNA interference strategies to knock down TRPM4. Cultured primary mouse hippocampus neurons were infected on day 3 in vitro (DIV3) with recombinant adeno-associated viruses (rAAVs) providing for expression of a scramble control (shSCR), shTRPM4-1 (SEQ ID NO:44) or shTRPM4-2 (SEQ ID NO:45). On DIV15-16, neurons were challenged with N-methyl-D-aspartate (NMDA, 20 μM) for 10 min. After NMDA wash out, neurons were kept in the culture medium for another 24 h before analysis. […] Evidently, TRPM4 is thus involved in the process of NMDA receptor mediated excitotoxicity.
In a next step, the inventors tried to identify regions in the mouse TRPM4 protein potentially involved in NMDA receptor mediated excitotoxicity. For this purpose, polypeptide fragments of mouse TRPM4 protein were generated and their impact on NMDA induced excitotoxicity analysed. To do so, primary neuron cultures were infected with respective rAAVs on DIV3, challenged with NMDA (20 μM) for 10 min on DIV17 and cell death assessed 24 hours later.
The sequence of SEQ ID NO:5 in TRPM4 is located in vivo just beneath the plasma membrane. […] To test this hypothesis, the inventors created a fusion protein comprising SEQ ID NO:5 and a GPI anchor, SEQ ID NO:57. The sequence of the fusion is given in SEQ ID NO:53. Neurons infected with rAAV and expressing SEQ ID NO:47 (control) or SEQ ID NO:53 were exposed to NMDA (20 μM) for 10 min on DIV15-16, with cell death assessed after 24 h.
In a next step, the inventors created a mutant of SEQ ID NO:5, in which two adjacent phenylalanine residues where substituted by tyrosine residues (SEQ ID NO: 54). […] TRPM5 is a protein related to but nonetheless distinct to TRPM4. The region in TRPM5 corresponding to SEQ ID NO:5, SEQ ID NO:55, shares only about 60% sequence identity with SEQ ID NO:5. Neurons were infected on DIV3 with rAAVs expressing SEQ ID NO: 5, SEQ ID NO: 54 or SEQ ID NO:55 and exposed to NMDA (20 μM) for 10 min on DIV17, with cell death assessed 24 h later. […]

| Molecule | protection against NMDA induced cell death (neuroprotective effect) |
| --- | --- |
| SEQ ID NO:46: fragment of mouse TRPM4, amino acid residues 1-346 | only SEQ ID NO:47 is neuroprotective |
| B1 | only SEQ ID NO:5 is neuroprotective |
| B2 | only SEQ ID NO:47 is neuroprotective |
| B3 | only SEQ ID NO:5 is neuroprotective |
| B4 | only SEQ ID NO:5 is neuroprotective |
| B5 | contains a neuroprotective element |
| B6 | can increase the ability to protect neurons from excitotoxicity; also recorded: increased the protective effects |
| B7 | only SEQ ID NO:47 is neuroprotective |

Same assay, conditions: rAAV shRNA infection DIV3; NMDA 20 μM 10 min on DIV15-16; analysis 24 h later

| Molecule | protection from NMDA induced excitotoxicity by knockdown of TRPM4 |
| --- | --- |
| shTRPM4-1: shRNA against mouse TRPM4 targeting ggacatcgcccaaagtgaact, expressed from rAAV (guide GGACAUCGCCCAAAGUGAACU; listed as Mus musculus) | significantly protected neurons |
| shTRPM4-2: shRNA against mouse TRPM4 targeting gcatccagagagggttcattc, expressed from rAAV (guide GCAUCCAGAGAGGGUUCAUUC; listed as Mus musculus) | significantly protected neurons |
